Measurements taken from article PMC9130890 (Advanced Science, 2022).

Legend:
HIV-1 BG505 Env trimer = HIV-1 BG505 Env trimer (HIV-1 (strain BG505), UniProt Q2N0S6)
[1] = molecular target: HIV-1 C1080 Env trimer, stabilized in the prefusion-closed state (HIV-1 (CRF01_AE strain C1080))

B1: J038 (antibody, V domains shown)
VH: QLHLQESGPGLVRPSETLSLTCDVSGGAFNDAYCSWIRRFPGGGLEWIGRISGRDGYVESNPALTGRVTMSIDATWKKIVLRLTSMTASDTATYFCAGETPEDDFGYYQPYFKTWGQGLGVTVSS
VL: DIQLIQSPSSVSASLGDRVTITCRSTQGIGSDLAWYQATPGTAPKLLIYNSFALHKGVPSRFSGSGSGTEFSLTITGLQPEDFATYYCQHYRRLPLTFGGGTNIEVK
binding result (HIV-1 BG505 Env trimer): binds | binding result [1]: binds
